Measured values as given in PMC7465229.
pKd: −log10 of the molar value.

System: H5N1 influenza A virus, whole virion (hemagglutinin presumed target) (Influenza A virus H5N1 (A/wild duck/Korea/SNU50-5/2011))
Test: rGO fluorescence recovery
Details: assay buffer, pH and temperature not stated ([…]

GACCGTGTCAGCGGGGACTAGCGGTG [tHBA1]
pKd: 6.31

ATGCGGATCCCGCGCGGGTCTGAGGAGTGCGCGGTGCCAGTGAGTGCGCGAAGCTTGCGC [HBA2]
pKd: 6.91

CCGCGCGGGTCTGAGGAGTGCGCGG [tHBA2]
pKd: 5.88

ATGCGGATCCCGCGCGCGACCGTGTCAGCGGGGACTAGCGGTGTAGCGCGAAGCTTGCGC [HBA1]
pKd: 7.15
